Laboratory results taken from the DeepSol protein solubility set.

Experiment: soluble on expression in E. coli; label from the status in PepcDB or PDB records

Row | Sequence | soluble on expression in E. coli
1 | AHHHHHHGSITLELHPSEIARYFELEECSHYFSNLLLRKRGELQEFEPIIRRKEIETIELAKWGDEFELSLLQEFKKGEALKKLGVKELPRFYGFLTENDTPVRKFFEKYFKDGIIVEEDPDKLLEIINSEKSAVIYQAPLKGRIGKFDVSGRADFIIKVGKTLYLLEAKFTKEEKFYHRIQAIIYAHLLSQMIEGYEIKLAVVTKENFPIPSNFLRFPGDVEELKITLEEKLGGILREQELWIDARCTTCPFEALCLSKALEERSLGLLSLPPGIIRILKEEGIKDLKDMAKLFEFKENSPTNFEEPSIKDPKKTQEIAKRTGINLLKLSRIAQAILKYLDEGETTPLFIPRTGYNLPMDERVGDVEPSYYPPRSLVKVFFYVQTSPITDTIIGISALVKNRQNGERIIVKFVDEPPIEVSDAQEKERMLLIEFFRDVIDAVKSLSPTDKVYLHMYFYNRKQRDDLMDAVKRHKEIRENNAVMALLSLRRAIDWESFSIIKDEIIRRHALPLSPGLGFVTVATQFGYRWRRNKTFARMLEVVARRENGKINLKTLLNISETGIGPEYYPIIDRDNEGIPFTLFWSALVKLATEEDNSRIKRDIRDILSQMVEALKTIEERIPEQYKDAFVKKEGIPKEDLENFDIKKEELADILLEYLQLEFDARFRERSEYYRLPLSIRAYSEESALIKIENIEKKKNDCLLFGKIVLIDENGRIKEYNPKEVLIDIDEGSLVVVTPKKFLDKLRRDPVQRISKSPLGIVEAIDHETGKVVIRLIRVSPGRFTLKHSKFSCKNGLLTITYPEGEVKVTPGEIVIVDPSVDDIGMERAYNVLSEISQGELKHEIYQKVKAIYEGNTESRYEVNIWKKKHIEEFLSRVKKINEEQKKFAIDINNFLVTLQGPPGTGKTSGAIAPAILARAYSMVKDKKNGLFVVTGVSHRAVNEALIKTLKLKKELENTLKELRKIDLIRAVSGEEAIKIIKEELEREIKDDVDRIRFTAQEITHSSKQRSLDKYFANSGTVRIVFGTPQTLNKLMKNTKEVELVVIDEASMMDLPMFFLSTKVCKGQVLLVGDHRQMEPIQVHEWQLEDRKTFEEHYPFLSALNFIRFLRGELDERELKKFKRILGREPPEWKKDKNEVLPLYRLVRTYRLPQEIADLLSDAIYRADGIKLISEKKKRRKIIARHKDEFLSIVLDDRYPFVLILHDEGNSTKINELEAKIVEKIIKRVENIDIGVVVPYRAQKRLIASLIDSAQVDTVERFQGGEKSLIVISMTSSDPRIPGKGF | not soluble
2 | AHHHHHHGSKAVTFPVPWEYLKRIFEGKNVFVKPATLRVEEGMKVIFYASRENQGWHGEAEVERVEYYTSVEEIIKKYRDKLFLTPEELRRYERDRARWDSGRRKRPWMVLVLRNIEKYPRVVKPKKFIVVSGRYVDEKEYEEIRRSTS | not soluble
3 | AHHHHHHGSVERSKVRVLIAKPGLDGHDRGAKVVARALRDAGYEVIYTGIRQTPEQIVEAVIEEDVDVLGISILSGAHMVLIPKILKLLEEKGIKPGEDILVVAGGIIPPDDAEELKKMGVAEVFGPGTPLKTIIEFIDKNVEKLKKFRSST | soluble
4 | AHPELKSSVPQADSAVAAPEKIQLNFSENLTVKFSGAKLTMTGMKGMSSHSPMPVAAKVAPGADPKSMVIIPREPLPAGTYRVDWRAVSSDTHPITGNYTFTVK | soluble
5 | AIAADTVDGKKEEADYKRLHNFPLIRHTDMPEEMRVETMELCVTACEKFATNNESAAKMIKESMDKKFGSSWHVVIGEGFGFEITHEVKNLLYMFFGGSLAVCVWKCS | soluble
6 | AIADAFEHENRYVHAVYEAIGDHFSATRYRTWPRVQAFLEQLAHEALVLDSGAGNGKYALPVLRQHGYYIAADRCRRLLLRARWQSDALEAQETALLPVECVQADCLFLPFRSGVFDVALSIAVIHHVATARRRVGAVVELGRVLRPTGHALVYVWALRAIPLKLRSRAQSTMDGYLLPWHHKRSTGADALPQKKSDSPSQTYFRFYHLFEEDELRMLVEEANAVSKEGAATTWTLRITGETFDHQNYVVEFQRQNIHALLEDAADNILHPSI | soluble
7 | AIAELFTLGACRQVGKSCFVLKTSEGLVMLDCGLHPSYQDDRRYPNFSLAFSYGPLKAVFITHCHADHVGALPILTERWGYDGPIYMSEPTRKLSYYILEECVGSWGGDDEWTDSSRSEWSYTQREVESCLTKVTIMEPGQSISVGENVQVHSWMAGHVLGAYMFSIVVDNHRILYTGDFTSCPTFHLPPARVDDIPYPPDVILSEATYATSFKDGRLNNQVEFIQNVLDCLLDGGKVLVPVFAIGRAQELLLLLGK | soluble
8 | AIAFKRKTAWFSDSVEKEVISFWVSEGGDISSWKTAGYLFSDDASSEDTKRIYGSEDYVKNRATVFHSSFLLACQPRQSVTSVPIGHYVLPPDFVQNEMKAIIGRFIWEKDEQVICEEQINPEVPKDILSGETEDHALRERSSQDDYQTVTSQSKVCSCCEMRQYPVNNMISGYVHIDQMRKYSGELKDFLPSLHGHDVSRSNDPTPPFHRKAV | soluble
9 | AIAMQISDTYNQKHSLFNAMNRFIGAVNNMDQTVMVPSLLRDVPLDMEVKDEVHNTIGATNYFSRTDMHGYYILLKSIRNDIEWGVVQGEDRKKDKLSNMEISRLEDGDGEEDLEKQFHYHLSGLHTVLNKLTRKAHILTNRYKEEIGFGSWGH | soluble
10 | AIARSEWPFDYASEADAMLHRITPENFEKLVRFAARLLRVGEIIALPTDTVYGLAAAARNSHGIELLYQTKQRDLRKPLAIAVPSVEDVSVYLHTEHLPPGLLEAILPGPLTLLLRQREDYVGIDLQDVRIDQYRGWERAKRLAPNLNLRRDGLLGVRVPDASFACAVSRELGDPLALTSANVSGRGDCGSVDEFRALWSACAAVFDGGAMPKPVMPSTVVDLSVPGTFRITRAGWMATDLVRILENKFGLTNKSANTSN | soluble
11 | AIASERLYYFVIVGRDDRVLYDLLYPASLSELDWRTSSELSSPAERGDFEPHHFIPSIQVLLQFVAYSALDHIEEKYWLTSARSLKHIFRFRDWSASVQLTPNAATRFVLVHGASDDASRNVRAFLHAVYEAYVPHVVCNPFQEEDAPITSKRFHEVAKNLAKRYFSG | soluble
12 | AIPLTLFYKFTYPIIVAFNKSTDLVLKLFGIKQVDEHEEAHTDEEIRMLVEESYKHGLIDKTELTFVDNVFDFSEKTVKEIMVPRTDMKCIFVEDSFDDIVGVTIDEHFTRYPVCEESKDNIIGLIHIKDLYKLKINKEDEKIESIIREIKFVPESMSISELFRMFQKERMQMAIVIDEYGGTFGLVTIEDILEEIVGEIQ | not soluble
13 | AIYHLTAKTGSRSGGQSARAKADYIQREGKYARDMDEVLHAESGHMPEFVERPADYWDAADLYERANGRLFKEVEFALPVELTLDQQKALASEFAQHLTGAERLPYTLAIHAGGGENPHCHLMISERINDGIERPAAQWFKRYNGKTPEKGGAQKTEALKPKAWLEQTREAWADHANRALERAGH | soluble
14 | AKDAVLSVDGIIVARSSNEITDLIPGATLALSGKTTDPATLSVSRDTQLAEAAMTYMVEELNATMKLLGELTRRSTDGSGSGELAGDRVVETLKRQVTALIGQPLTGHGEKPVYLSQLGVSTNRDGSLSFNASAFQKAFEKTPQIFDAMFTDSLTAITPGASIAGKAASSAASGDYIFRLDPVTGEATVGGGATLALPGANGASQYLVLSGGLAGVMVSVESGVTDATLRFGRSFATQLQALLDTAAGQNGAISDREGQIGKVAEEQAKVIEALDARAAKLESRYLAQFTAMEQAVSRMKSTGTYLENLISAWNKD | not soluble
15 | AMGVPCVEDEDFIQALDKMMLENLQQRSGESVKVHQLDVAIPLHLKSQLRKGPPLGGGEGEAESADTMPFVMLTRKGNKQQFKILNVPMSSQLAANH | soluble
16 | AMMIGIIGAMEEEVTILKNKLTQLSEISVAHVKFYTGILKDREVVITQSGIGKVNAAISTTLLINKFKPDVIINTGSAGALDESLNVGDVLISDDVKYHDADATAFGYEYGQIPQMPVAFQSSKPLIEKVSQVVQQQQLTAKVGLIVSGDSFIGSVEQRQKIKKAFPNAMAVEMEATAIAQTCYQFNVPFVVVRAVSDLANGEAEMSFEAFLEKAAVSSSQTVEALVSQL | soluble
17 | ANCAVCDSPGDLLDQFFCTTCGQHYHGMCLDIAVTPLKRAGWQCPECKVCQNCKQSGEDSKMLVCDTCDKGYHTFCLQPVMKSVPTNGWKCKNCRICI | soluble
18 | ANCSIMIDEIIHHLKRPPNPLLDPNNLNSEDMDILMERNLRTPNLLAFVRAVKHLENASAIESILKNLLPCLPLATAAPTRHPIHIKDGDWNEFRRKLTFYLKTLENAQAQQ | soluble
19 | ANRHPAKVVSTRYFPQARVMELVLAPSNNGQGKPWQGHKAGQFAYVRFGNEDPHPFTIVSGEHEPEVRFLIKELGDFTTDLYHRVKIGEEVMVEGPYGRLA | not soluble
20 | ANSFLEEMKKGHLERECMEETCSYEEAREVFEDSDKTNEFWNKYKDGDQCETSPCQNQGKCKDGLGEYTCTCLEGFEGKNCELFTRKLCSLDNGDCDQFCHEEQNSVVCSCARGYTLADNGKACIPTGPYPCGKQTLE | soluble
21 | APLAHCDGRGGLKLSQDMDTCEDILPCVPFSVAKSVKSLYLGRMFSGTPVIRLRFKRLQPTRLVAEFDFRTFDPEGILLFAGGHQDSTWIVLALRAGRLELQLRYNGVGRVTSSGPVINHGMWQTISVEELARNLVIKVNRDAVMKIAVAGDLFQPERGLYHLNLTVGGIPFHEKDLVQPINPRLDGCMRSWNWLNGEDTTIQETVKVNTRMQCFSVTERGSFYPGSGFAFYSLDYMRTPLDVGTESTWEVEVVAHIRPAADTGVLFALWAPDLRAVPLSVALVDYHSTKKLKKQLVVLAVEHTALALMEIKVCDGQEHVVTVSLRDGEATLEVDGTRGQSEVSAAQLQERLAVLERHLRSPVLTFAGGLPDVPVTSAPVTAFYRGCMTLEVNRRLLDLDEAAYKHSDITAHSCPPVEPAAA | soluble
22 | APQVVDKVAAVVNNGVVLESDVDGLMQSVKLNAAQARQQLPDDATLRHQIMERLIMDQIILQMGQKMGVKISDEQLDQAIANIAKQNNMTLDQMRSRLAYDGLNYNTYRNQIRKEMIISEVRNNEVRRRITILPQEVESLAQQVGNQNDASTELNLSHILIPLPENPTSDQVNEAESQARAIVDQARNGADFGKLAIAHSADQQALNGGQMGWGRIQELPGIFAQALSTAKKGDIVGPIRSGVGFHILKVNDLRGESKNISAAQKDRAYRMLMNRKFSEEAASWMQEQRASAYVKILSN | soluble
23 | AQPKETILSIKDLVVKESRGLDAVKNLSLDVRAGEVVGIAGIDGNGQTELIQALAGLTKVENGSIHLNEKEITNRKPREITEMGVAHVPEDRHKYGLVLEMTLAENIGLQTYYQKPYSSTGILNYRMINKHARELIEEYDVRTPNELVPARALSGGNQQKAIIAREVDRDPDLLIVSQPTRGLDVGAIEYIHRRLIEQRDKNKAVLLVSFELDEILNVSDRIAVIHAGEIVGIVDPKETTENELGLLMAGYSLEEARAELSKVEAGETVE | not soluble
24 | AQQAEWRSWEVNKRLEYSLVKGITEFIEQDTEEARQQATRPCEVIEGPLMDGMNVVGDLFGEGKMFLPQVVKSARVMKQAVAYLEPFIEASKEQCKTNGKMVIATVKGDVHDIGKNIVGVVLQCNNYEIVDLGVMVPAEKILRTAKEVNADLIGLSGLITPSLDEMVNVAKEMERQGFTIPLLIGGATTSKAHTAVKIEQNYSGPTVYVQNASRTVGVVAALLSDTQRDDFVARTRKEYETVRIQHGRKKPRTPPVTLEAARDNDFAFDWQAYTPPVAHRLGVQEVEASIETLRNYIDWTPFFMTWSLAGKYPRILEDEVVGVEAQRLFKDANDMLDKLSAEKTLNPRGVVGLFPANRVGDDIEIYRDETRTHVINVSHHLRQQTEKTGFANYCLADFVAPKLSGKADYIGAFAVTGGLEEDALADAFEAQHDDYNKIMVKALADRLAEAFAEYLHERVRKVYWGYAPNENLSNEELIRENYQGIRPAPGYPACPEHTEKATIWELLEVEKHTGMKLTESFAMWPGASVSGWYFSHPDSKYYAVAQIQRDQVEDYARRKGMSVTEVERWLAPNLGYDAD | soluble
